The values that follow come from article PMC3600519, “Acute toxicity of vipoxin and its components: is the acidic component an “inhibitor” of PLA2 toxicity?” (Interdisciplinary Toxicology, 2012).

For this assay, the target named is T1, vipoxin basic and toxic phospholipase A2 subunit (Vipera ammodytes meridionalis, UniProt P14420 1-122).
T1 sequence: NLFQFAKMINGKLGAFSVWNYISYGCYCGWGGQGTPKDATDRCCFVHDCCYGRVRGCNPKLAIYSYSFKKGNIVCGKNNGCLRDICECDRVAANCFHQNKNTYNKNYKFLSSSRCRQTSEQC
The assay can be described thus: cell-based or functional assay.

B1: vipoxin's acidic component (natural protein)
chain: NLFQFGDMILQKTGKEAVHSYAIYGCYCGWGGQGRAQDATDRCCFAQDCCYGRVNDCNPKTATYTYSFENGDIVCGDNDLCLRAVCECDRAAAICLGENVNTYDKNYEYYSISHCTEESEQC
With B1, the “residual PLA2 enzyme activity (NOBA substrate) of reconstituted complex PLA2 + VAC (1:1 molar ratio), pre-incubation 1 min to 24 h (100, 120, 115, 114, 114, 113, 108, 78 %)” value came out at 120%.
